{"source": "paper PMC4593522", "about": "“Development of a Radiolabeled Peptide-Based Probe Targeting MT1-MMP for Breast Cancer Detection” (PLoS ONE, 2015)", "experiment": "In vivo biodistribution study (ex vivo organ counting)", "design": "species or system mice", "conditions": "female, mouse, iv, total radioactivity, mean ± SD, n = 3; for tissue to tissue ratio at 0.5 h / tissue to tissue ratio at 1 h / tissue to tissue ratio at 2 h / tissue to tissue ratio at 4 h: athymic nude; for tissue to tissue ratio at 0.5 h: 0.5h after i.v.; for tissue to tissue ratio at 1 h: 1h after i.v.; for tissue to tissue ratio at 2 h: 2h after i.v.; for tissue to tissue ratio at 4 h: 4h after i.v.", "protocol": "All animal experiments were approved by Jilin University Health Science Center Animal Care and Use Committee. Human breast carcinoma cell line MDA-MB-231 with high MT1-MMP expression and human lung adenocarcinomaepithelial cell line A549 with low MT1-MMP expression were cultured in DMEM medium containing 10% (v/v) fetal bovine serum (Invitrogen) supplemented with penicillin (100 μg/mL) and streptomycin (100 μg/mL) at 37°C with 5% CO2. MDA-MB-231 and A549 tumor models were established by subcutaneous injection of 5×10^6 cells into the upper right front flank of female athymic nude mice (Department of Experimental Animal, Peking University Health Science Center). Tumor growth was monitored by caliper measurements three times a week after the tumors are palpable. The mice were used for SPET/CT imaging when the tumor volume reached about 200 mm3 (about 14 days after tumor inoculations). The tumor volume was determined as the formula: V = a × (b^2)/2, where a and b are the length and width of each tumor in mm respectively. During the injection and image acquisition process, the mice were anesthetized with 2.5% isoflurane in oxygen delivered at a flow rate of 1.5 L/min.\nAnimals were divided into 4 groups (n = 3) for 4 time points with approximately equal distribution of tumor sizes on the day before the study. At 0.5, 1, 2, and 4 h after intravenous administration of [^99mTc]-(HYNIC-AF7P)(tricine)(TPPTS), MDA-MB-231 tumor bearing mice were euthanized. […] The organ uptake was calculated as a percentage of the injected dose per gram of wet tissue (%ID/g).", "key": {"[1]": {"conditions": "tumor and intestine, read-out: Tumor/Intestine ratio"}, "[2]": {"conditions": "tumor and pancreas, read-out: Tumor/Pancreas ratio"}, "[3]": {"conditions": "tumor/blood, read-out: Tumor/Blood ratio"}, "[4]": {"conditions": "tumor/bone, read-out: Tumor/Bone ratio"}, "[5]": {"conditions": "tumor/heart, read-out: Tumor/Heart ratio"}, "[6]": {"conditions": "tumor/kidney, read-out: Tumor/Kidney ratio"}, "[7]": {"conditions": "tumor/liver, read-out: Tumor/Liver ratio"}, "[8]": {"conditions": "tumor/lung, read-out: Tumor/Lung ratio"}, "[9]": {"conditions": "tumor/muscle, read-out: Tumor/Muscle ratio"}, "[10]": {"conditions": "tumor/spleen, read-out: Tumor/Spleen ratio"}}, "note": "Like-named read-outs stand apart in the source and are kept apart here. Square brackets hold non-standard residues; d marks the D form. Peptide text beside a SMILES is read from it. * marks the point of attachment. HYNIC = NNc1ccc(C(=O)*)cn1; AEEA = NCCOCCOCC(=O)O"}
{"smiles": "CC(C)C[C@H](NC(=O)[C@H](Cc1ccccc1)NC(=O)[C@@H](NC(=O)[C@H](CCCCN)NC(=O)[C@@H](NC(=O)[C@H](CC(N)=O)NC(=O)[C@H](Cc1c[nH]cn1)NC(=O)[C@H](CC(C)C)NC(=O)[C@H](Cc1c[nH]cn1)NC(=O)[C@H](CCCCN)NC(=O)[C@H](Cc1c[nH]c2ccccc12)NC(=O)[C@H](Cc1c[nH]cn1)NC(=O)c1ccc(NN)nc1)[C@@H](C)O)[C@@H](C)O)C(=O)NCCOCCOCC(=O)O", "note": "[[^99mTc]-(HYNIC-AF7P)(tricine)(TPPTS), metal not drawn] ({HYNIC}-HWKHLHNTKTFL[AEEA]-OH)", "values": [{"measurement": "tissue to tissue ratio at 0.5 h", "setting": "[1]", "value": "1.76 ± 0.1"}, {"measurement": "tissue to tissue ratio at 1 h", "setting": "[1]", "value": "1.61 ± 0.17"}, {"measurement": "tissue to tissue ratio at 2 h", "setting": "[1]", "value": "1.44 ± 0.13"}, {"measurement": "tissue to tissue ratio at 4 h", "setting": "[1]", "value": "0.93 ± 0.12"}, {"measurement": "tissue to tissue ratio at 4 h", "setting": "tumor and liver, read-out: Tumor/Liver ratio", "value": "0.41 ± 0.04"}, {"measurement": "tissue to tissue ratio at 0.5 h", "setting": "[2]", "value": "4.4 ± 0.43"}, {"measurement": "tissue to tissue ratio at 1 h", "setting": "[2]", "value": "4.98 ± 0.16"}, {"measurement": "tissue to tissue ratio at 2 h", "setting": "[2]", "value": "6.28 ± 0.7"}, {"measurement": "tissue to tissue ratio at 4 h", "setting": "[2]", "value": "5.67 ± 0.82"}, {"measurement": "tissue to tissue ratio at 0.5 h", "setting": "[3]", "value": "9.27 ± 0.28"}, {"measurement": "tissue to tissue ratio at 1 h", "setting": "[3]", "value": "9.36 ± 0.73"}, {"measurement": "tissue to tissue ratio at 2 h", "setting": "[3]", "value": "11.1 ± 0.74"}, {"measurement": "tissue to tissue ratio at 4 h", "setting": "[3]", "value": "5.54 ± 0.55"}, {"measurement": "tissue to tissue ratio at 0.5 h", "setting": "[4]", "value": "4.21 ± 0.2"}, {"measurement": "tissue to tissue ratio at 1 h", "setting": "[4]", "value": "4.5 ± 0.51"}, {"measurement": "tissue to tissue ratio at 2 h", "setting": "[4]", "value": "5.01 ± 0.38"}, {"measurement": "tissue to tissue ratio at 4 h", "setting": "[4]", "value": "2.6 ± 0.15"}, {"measurement": "tissue to tissue ratio at 0.5 h", "setting": "[5]", "value": "1.49 ± 0.23"}, {"measurement": "tissue to tissue ratio at 1 h", "setting": "[5]", "value": "1.56 ± 0.26"}, {"measurement": "tissue to tissue ratio at 2 h", "setting": "[5]", "value": "2.23 ± 0.2"}, {"measurement": "tissue to tissue ratio at 4 h", "setting": "[5]", "value": "1.66 ± 0.21"}, {"measurement": "tissue to tissue ratio at 0.5 h", "setting": "[6]", "value": "0.38 ± 0.01"}, {"measurement": "tissue to tissue ratio at 1 h", "setting": "[6]", "value": "0.35 ± 0.01"}, {"measurement": "tissue to tissue ratio at 2 h", "setting": "[6]", "value": "0.45 ± 0.04"}, {"measurement": "tissue to tissue ratio at 4 h", "setting": "[6]", "value": "0.24 ± 0.02"}, {"measurement": "tissue to tissue ratio at 0.5 h", "setting": "[7]", "value": "0.65 ± 0.06"}, {"measurement": "tissue to tissue ratio at 1 h", "setting": "[7]", "value": "0.67 ± 0.07"}, {"measurement": "tissue to tissue ratio at 2 h", "setting": "[7]", "value": "0.75 ± 0.05"}, {"measurement": "tissue to tissue ratio at 0.5 h", "setting": "[8]", "value": "1.6 ± 0.18"}, {"measurement": "tissue to tissue ratio at 1 h", "setting": "[8]", "value": "1.81 ± 0.34"}, {"measurement": "tissue to tissue ratio at 2 h", "setting": "[8]", "value": "2.17 ± 0.14"}, {"measurement": "tissue to tissue ratio at 4 h", "setting": "[8]", "value": "1.51 ± 0.3"}, {"measurement": "tissue to tissue ratio at 0.5 h", "setting": "[9]", "value": "3.77 ± 0.42"}, {"measurement": "tissue to tissue ratio at 1 h", "setting": "[9]", "value": "3.86 ± 0.75"}, {"measurement": "tissue to tissue ratio at 2 h", "setting": "[9]", "value": "4.17 ± 0.49"}, {"measurement": "tissue to tissue ratio at 4 h", "setting": "[9]", "value": "2.02 ± 0.09"}, {"measurement": "tissue to tissue ratio at 0.5 h", "setting": "[10]", "value": "3.75 ± 0.46"}, {"measurement": "tissue to tissue ratio at 1 h", "setting": "[10]", "value": "3.66 ± 0.58"}, {"measurement": "tissue to tissue ratio at 2 h", "setting": "[10]", "value": "3.94 ± 0.57"}, {"measurement": "tissue uptake at 0.5 h", "setting": "tumor, 0.5 h after i.v. administration, MDA-MB-231 xenograft, BALB/c nude mice, read-out: Tumor uptake (biodistribution)", "value": "3.37 ± 0.27", "unit": "%ID/g"}, {"measurement": "tissue uptake at 1 h", "setting": "tumor, 1 h after i.v. administration, MDA-MB-231 xenograft, BALB/c nude mice, read-out: Tumor uptake (biodistribution)", "value": "2.59 ± 0.21", "unit": "%ID/g"}, {"measurement": "tissue uptake at 2 h", "setting": "tumor, 2 h after i.v. administration, MDA-MB-231 xenograft, BALB/c nude mice, read-out: Tumor uptake (biodistribution)", "value": "2.18 ± 0.11", "unit": "%ID/g"}, {"measurement": "tissue uptake at 4 h", "setting": "tumor, 4 h after i.v. administration, MDA-MB-231 xenograft, BALB/c nude mice, read-out: Tumor uptake (biodistribution)", "value": "1.05 ± 0.07", "unit": "%ID/g"}]}
